Measured values taken from patent publication US20150098945A1 (Daiichi Sankyo, published 2015).

T1: recombinant human ROBO4 extracellular region polypeptide rROBO4-ECD (human, UniProt Q8WZ75 28-461)
T1 construct: Expressed from pEF6/V5-His-TOPO in FreeStyle 293-F cells; also called human ROBO4-ECD
T1 sequence: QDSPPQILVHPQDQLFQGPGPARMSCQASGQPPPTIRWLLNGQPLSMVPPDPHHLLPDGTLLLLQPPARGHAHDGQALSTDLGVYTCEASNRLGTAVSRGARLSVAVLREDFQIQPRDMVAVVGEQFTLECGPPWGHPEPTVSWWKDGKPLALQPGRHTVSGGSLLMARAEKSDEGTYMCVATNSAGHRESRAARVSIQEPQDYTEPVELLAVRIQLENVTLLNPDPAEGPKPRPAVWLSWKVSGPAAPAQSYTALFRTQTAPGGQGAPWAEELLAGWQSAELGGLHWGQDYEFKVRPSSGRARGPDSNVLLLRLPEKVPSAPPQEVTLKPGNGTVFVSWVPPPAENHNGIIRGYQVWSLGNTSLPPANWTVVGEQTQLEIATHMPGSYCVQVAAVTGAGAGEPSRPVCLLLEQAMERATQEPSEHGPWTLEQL


What was measured:
[1] = biological target: T1, recombinant human ROBO4 extracellular …; assay: SPR (Biacore 3000), antibody captured via anti-human IgG on CM5, rROBO4-ECD as analyte, 1:1 model
Procedure: The dissociation constant between each antibody and rROBO4-ECD was determined with the antibody immobilized as a ligand and the antigen as an analyte using Biacore 3000 (manufactured by GE Healthcare Bio-Sciences Corp.). Approximately 80 RU of the antibody was bound via an anti-human IgG antibody (manufactured by GE Healthcare Bio-Sciences Corp.) immobilized on a sensor chip CM5 (manufactured by GE Healthcare Bio-Sciences Corp.) by an amine coupling method. The running buffer used was PBS containing 0.05% Surfactant P20. Dilution series solutions (0.1-200 nM) of the antigen were added at a flow rate of 30 μL/min. for 300 seconds onto the antibody-bound chip. Subsequently, a dissociation phase was monitored for 300 seconds. 3 M MgCl₂ was added thereto as a regeneration solution at a flow rate of 10 μL/min. for 30 seconds. Data was analyzed using the 1:1 binding model of analysis software (BIAevaluation Software, version 4.1) to calculate an association rate constant kon, a dissociation rate constant koff, and a dissociation constant (KD; KD=koff/kon).

[2] = biological target: N-terminal FLAG-tagged human ROBO1 (pCI-FLAG-hROBO1-transfected HEK293 cells) (human, UniProt Q9Y6N7 58-1651); assay: flow cytometry (FC500), HEK293 cells transfected with pCI-FLAG-hROBO1, FITC goat anti-human IgG Fc; control histogram IgG (human IgG)
Chain of N-terminal FLAG-tagged human ROBO1 (pCI-FLAG-hROBO1-transfected HEK293 cells) (Q9Y6N7 other isoform, or with tags, fused parts or gaps): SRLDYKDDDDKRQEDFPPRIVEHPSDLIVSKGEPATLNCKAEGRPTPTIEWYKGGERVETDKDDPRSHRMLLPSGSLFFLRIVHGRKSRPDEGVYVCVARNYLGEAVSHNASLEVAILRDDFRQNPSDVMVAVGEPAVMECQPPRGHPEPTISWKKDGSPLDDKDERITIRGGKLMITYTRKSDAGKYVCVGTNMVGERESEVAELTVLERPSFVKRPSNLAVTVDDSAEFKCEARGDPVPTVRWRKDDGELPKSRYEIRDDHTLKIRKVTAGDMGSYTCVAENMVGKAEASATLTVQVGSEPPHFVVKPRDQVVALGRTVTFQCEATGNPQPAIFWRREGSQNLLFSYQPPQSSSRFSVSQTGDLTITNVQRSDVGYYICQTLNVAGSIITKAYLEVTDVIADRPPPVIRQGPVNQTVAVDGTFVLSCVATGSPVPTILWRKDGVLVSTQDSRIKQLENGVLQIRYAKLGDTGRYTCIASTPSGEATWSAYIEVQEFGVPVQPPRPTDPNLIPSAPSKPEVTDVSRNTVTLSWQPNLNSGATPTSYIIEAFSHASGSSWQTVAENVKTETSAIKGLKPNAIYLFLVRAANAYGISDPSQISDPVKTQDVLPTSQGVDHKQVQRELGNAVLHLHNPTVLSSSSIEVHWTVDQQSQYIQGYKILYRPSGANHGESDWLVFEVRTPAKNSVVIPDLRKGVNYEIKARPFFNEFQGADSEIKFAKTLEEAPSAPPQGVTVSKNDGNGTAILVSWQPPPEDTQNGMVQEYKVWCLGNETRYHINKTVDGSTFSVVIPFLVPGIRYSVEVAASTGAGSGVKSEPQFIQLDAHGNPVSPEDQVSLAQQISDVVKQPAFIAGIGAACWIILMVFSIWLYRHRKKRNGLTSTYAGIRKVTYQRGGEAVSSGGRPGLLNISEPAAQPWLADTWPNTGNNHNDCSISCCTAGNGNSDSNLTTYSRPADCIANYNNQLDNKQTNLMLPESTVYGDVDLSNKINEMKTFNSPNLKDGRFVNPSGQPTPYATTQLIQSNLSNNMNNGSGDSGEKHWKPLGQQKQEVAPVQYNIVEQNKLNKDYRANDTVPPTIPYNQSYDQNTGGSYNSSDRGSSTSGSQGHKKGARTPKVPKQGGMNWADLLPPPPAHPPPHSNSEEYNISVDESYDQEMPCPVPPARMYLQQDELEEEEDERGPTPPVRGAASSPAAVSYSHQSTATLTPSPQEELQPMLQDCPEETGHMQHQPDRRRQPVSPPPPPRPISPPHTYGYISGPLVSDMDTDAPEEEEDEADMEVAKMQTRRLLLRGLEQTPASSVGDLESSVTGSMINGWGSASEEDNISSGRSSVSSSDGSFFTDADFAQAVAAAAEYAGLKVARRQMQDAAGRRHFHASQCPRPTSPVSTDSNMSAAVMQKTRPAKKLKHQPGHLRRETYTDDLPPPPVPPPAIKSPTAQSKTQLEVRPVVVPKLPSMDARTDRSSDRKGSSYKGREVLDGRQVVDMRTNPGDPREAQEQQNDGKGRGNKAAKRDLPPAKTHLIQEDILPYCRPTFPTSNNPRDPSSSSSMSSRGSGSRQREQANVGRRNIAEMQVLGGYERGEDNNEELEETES

| Kd [1] [nM] | binding result [2] | Binder |
| --- | --- | --- |
| 3.5 | no binding (tested: 10 µg/mL) | humanized MAb1 antibody H-1143 (antibody, human IgG2, kappa, V domains shown, Human IgG2 / kappa constant regions; also called hMAb1-H2-type heavy chain + hMAb1-L2-type light chain) VH: EVQLVESGGGLVQPGGSLRLSCAASGFTFSTYAMSWVRQAPGKGLEWVATISQGGTYTYYPDSVKGRFTISRDNAKNTLYLQMNSLRAEDTAVYYCARLIYYDYLDYWGQGTLVTVSS VL: DIVMTQSPLSLPVTLGEPASISCRSSQSLENENKNLYLNWYLQKPGQSPQLLIYRVSNRFSGVPDRFSGSGSGTDFTLKISRVEAEDVGVYYCLQVTHVPWTFGPGTKVDIKR |
| 3.9 |  | humanized MAb1 antibody H-1140 (antibody, human IgG2, kappa, V domains shown, Human IgG2 / kappa constant regions; also called hMAb1-H2-type heavy chain + hMAb1-L1-type light chain) VH: EVQLVESGGGLVQPGGSLRLSCAASGFTFSTYAMSWVRQAPGKGLEWVATISQGGTYTYYPDSVKGRFTISRDNAKNTLYLQMNSLRAEDTAVYYCARLIYYDYLDYWGQGTLVTVSS VL: DIVMTQSPLSLPVTLGEPASISCRSSQSLENSNGNTYLNWYLQKPGQSPQLLIYRVSNRFSGVPDRFSGSGSGTDFTLKISRVEAEDVGVYYCLQVTHVPWTFGPGTKVDIKR |
| 1.7 | no binding (tested: 10 µg/mL) | humanized MAb1 antibody H-2143 (antibody, human IgG2, kappa, V domains shown, Human IgG2 / kappa constant regions; also called hMAb1-H4-type heavy chain + hMAb1-L2-type light chain) VH: EVQLVESGGGLVQPGGSLRLSCAASGFTFSTYAMSWVRQAPGKRLEWVATISQGGTYTYYPDSVKGRFTISRDNAKNTLYLQMNSLRAEDTAVYYCARLIYYDYLDYWGQGTLVTVSS VL: DIVMTQSPLSLPVTLGEPASISCRSSQSLENENKNLYLNWYLQKPGQSPQLLIYRVSNRFSGVPDRFSGSGSGTDFTLKISRVEAEDVGVYYCLQVTHVPWTFGPGTKVDIKR |
| 1.8 | no binding (tested: 10 µg/mL) | humanized MAb1 antibody H-2140 (antibody, human IgG2, kappa, V domains shown, Human IgG2 / kappa constant regions; also called hMAb1-H4-type heavy chain + hMAb1-L1-type light chain) VH: EVQLVESGGGLVQPGGSLRLSCAASGFTFSTYAMSWVRQAPGKRLEWVATISQGGTYTYYPDSVKGRFTISRDNAKNTLYLQMNSLRAEDTAVYYCARLIYYDYLDYWGQGTLVTVSS VL: DIVMTQSPLSLPVTLGEPASISCRSSQSLENSNGNTYLNWYLQKPGQSPQLLIYRVSNRFSGVPDRFSGSGSGTDFTLKISRVEAEDVGVYYCLQVTHVPWTFGPGTKVDIKR |
